Test: soluble on expression in E. coli; label from the status in PepcDB or PDB records

Sequence	soluble on expression in E. coli
MSLSLFDMFKVGIGPSSSHTVGPMKAGKQFVDDLVEKGLLDNVTRVAVDVYGSLSLTGKGHHTDIAIIMGLAGNEPATVDIDSIPGFIRDVETRERLLLAQGRHEVDFPKDDGMRFHNGNLPLHENGMQIHAWHDDTVIYSKTYYSIGGGFIVDEEHFGQEATNEVTVPYPFKSAKEMLEYCNSTGLSLSGMVMQNELALHSKKEIEEYFGHVWQTMQACIDRGMNTEGVLPGPLRVPRRASALRRMLVSSDKLSSDPMNVIDWVNMFALAVNEENAAGGRVVTAPTNGACGIVPAVLAYYDHFIESVSPDIYTRYFLAAGAIGALYKMNASISGAEVGCQGEVGVACSMAAAGLAELLGASPEQVCVAAEIGMEHNLGLTCDPVAGQVQVPCIERNAIASVKAINAARMAMRRTSAPRVSLDKVIETMYETGKDMNAKYRETSRGGLAIKVQCDEGHHHHHH	soluble
MGSDKIHHHHHHYDLSDVNTDDAVMGESWVAPLGMGYVTSDDVVNVEKVPSIREVDGAYVMIYDGEMKIKGKSLRAASDKVEIASEDITTGDIDGLFDGDFVLALTNPHITLKSNVKNASLDCSLSIEAENTSKKEATSSDFTLSTVSPNIWIGPLDPKTDAFKFVKNEKLPGIVQIVPQKIHLSLSADSKQWTNAPADALSELRYAVELPLTPAPEFSAVSVERIEDAFDEDFVDYIFSDGSARIYGEVTNEMPFDMSIEMVIMDENNVPVDIQFPAQEVKGQSGEVIFEITKEDMPKMKDARHIDLNLHLTGRDQGEALKKGQKTTFNLKLKKEGGISI	not soluble
MGSDKIHHHHHHMFVRVDISSLPLGKRMAQDIYDFDGHLLISKGIVVQESHLQQLRQRGYEYVYIQEEDEVNENSLNQGIAYLTDKQLPKAFSASVEGMRQMMDKVSSRHMIKLGEVEECIDLVYDHVLQTYNVLKHLQDLRNKDEYTLQHSVSVGILSIKIGQSLGLDADKLKNLGIAGLLHDIGKSMISLDIINKPGPLDDKEFKEIKKHPVYGYQIVNEIKLEDQDIPQAVLQHHEHQDGNGYPLGIRGDRINSFARIIAVADVFDALTSDRAYRPRMSLLQAVDIIIKSSCGQLDPLASRRLLSYVLDITTGEKVILSTGEEATVILKNEVDPARPLVRIGDNFLDLKTNRDVFIKDFAR	not soluble
MKPKEDREWEKFKTKHITSQSVADFNCNRTMNDPAYTPDGQCKPINTFIHSTTGPVKEICRRATGRVNKSSTQQFTLTTCKNPIRCKYSQSNTTNFICITCRDNYPVHFVKTGKC	soluble
MDEGVKEKFIGAVLGAAVGDALGKSVEDITEEEVFEFYGDRIRDFVTPHPSSPAYGQLPEETSDETTIFRLLLESLVEKKALDVRDFLNRLMEWYDREEMHRYPDPMLLTAIDLLSRGINPSTHGLTSFSVEGILRSVALGLYHYYNPELAAEGSKVVSLLTHRSDVISDASAILGALIAHLVRGDFYLEDFREKLRLIETLKDYAKEEKHKKILDRVAELLMESADLETAINTLGNGTFAFEAFPLALYIFLSNVENPEEALFQAVNSYGEFGGDTDAIGFLVGAMLGAYYGEEAIPYHLRENVENSQKLRELAERLYEVVEKQVGFSQ	not soluble
MAHHHHHHMQKTILQILREQDDASSSCVLALLKGNASFQCLSKSEGEDILKRDNEDAEKLSDGIRIAIRKGIVSGKPDVSPVNKLNVVGLSAQEVTDKIVAALPSKNGNVIILQGLSGTGKGTTVSKLKDALPKCVTWSNGNIFRSYTYLCNEVLAAQGKEITEESLTDELLSSVEKRVTFVKCEDGMFHTMLDGTRRVADVQNTLLKTPLISSKVPTVAQQTQGEVIRFGAGAVKQLSADGYNVILEGRSQTLDYISSPLRFELIIPDVEVLGQRRAAQRVMAKALEMLDDSASDEEVSKVLVKAVETLQ	soluble
YGKQRKASVIGAINTVSMNELKMPVAKLSSGLAGQLAGIVVMQRSGEPGAGADFWIRGINTFGAGNKPLVLVDGVERSMDLVDVEDIASFSILKDATATALYGVRGANGIVLITTKRGTES	not soluble
MGSDKIHHHHHHMAAFTTTDGLRLFYEDEGTGQPLLCLAGLTRCSRDFEFLRPHVTDLRLIRLDYRGRGQSDYDPDYRNYNVLREAHDVIELLDHLGLDRVTVLGTSRGGMIAMALAASHPDRLAGVILNDVGPVIEPAGIARIMDYVGKKPVSKTHDQAALALKQAMEPQFPGVPLSVWRKQAEIQYAASDQGLALRYDDGLHKALLDQAATGAIPDLWLFFEALRDIPTAVLRGANSDILGAGTVAEMHRRHPGLISAEVPDRGHVPFLDEPQSLDLIRRILETA	not soluble
MEGGSITPGEDKPEIQSPIPPNQIFILSGQSNMAGRGGVFKDHHNNRWVWDKILPPECAPNSSILRLSADLRWEEAHEPLHVDIDTGKVCGVGPGMAFANAVKNRLETDSAVIGLVPCASGGTAIKEWERGSHLYERMVKRTEESRKCGGEIKAVLWYQGESDVLDIHDAESYGNNMDRLIKNLRHDLNLPSLPIIQVAIASGGGYIDKVREAQLGLKLSNVVCVDAKGLPLKSDNLHLTTEAQVQLGLSLAQAYLSNFC	soluble
MGSDKIHHHHHHAELPAGTVIDKANLDKIKSDTFDGHTIASLLTDKLEWQIRNTGLKIPLGHAKPVQLDPKYIEATKKNAGKAQFDEKSREVTGWVAGIPFPEVSQNDPFAGDKLVWNFYYASPEGDVINNKATFLMISGDKGLESTQDWLFERYYMKGRISGDKPVLGDGSILSKTLFVATAPEDIKGVGTFTIRYDSPKLEDSWAYIKSARRTRRLSGGAWMDPVGGLDVLNDDIYVWNARPSWYPKVKLVGRRWILAISDAKLGYNASKKGTPEEWKTVDLSNPPYWNPVQTWQPREVWVIEGTPPAEHPYGKKVVYMDVNYPRVYMGEAYDKKGEFWKFINFHMTPSVGEDGTKYSSSIQGDIIDFKARHASIYLFRGYKLNEAKIKETDMSYSALESIAK	not soluble
MGSDKIHHHHHHMLGFRALAKPGAISMWVPQYSHQTQPVYLMIADALEQDIESGRLAEGDRLPTLKDLAEALNVTPGTVGRAYDEAAKRGLVAGEVGRGTFVRQLRQPLPAPSVPTPVAGESSQIDLSIIKPNDAHMSEWLGTAISELAASSDLGQVLDYVTEGGHTSHKQAGATWIQRWLPDARWQQVVLTAGAQHGLLVAISSLSKSDDVVLCESLCYPGIISLAHSLGRRLRGVAMDEHGLIPEALRAACLEHRPSLLVCVTTHQNPTNSIMPPARRQAIAEIAREFDLFIVDDDIYGFLEPSPDYKPLAAYAPERSVYLTSLSKSVLPALRIGYLYAPPQTLSRLSSMVRSSVWMPSPLMAQLASNLINSGKADQLVRMQQQEAAARQHMAREILGQYKIRSQPHSFHIWLELPEPWTSDEFANLARDNGVTVVSGSQFLPERSHATSGVRIALMAPSRQELGFALTKLASLLDSPEPRLFY	not soluble
GMNNSLAFNHDTLPQKVMFGYGKSSAFLKQEVERRGSAKVMVIAGEREMSIAHKVASEIEVAIWHDEVVMHVPIEVAERARAVATDNEIDLLVCVGGGSTIGLAKAIAMTTALPIVAIPTTYAGSEATNVWGLTEAARKTTGVDLKVLPETVIYDSELTMSLPVEMSVASGLNGLAHCIDSLWGPNADPINAVLAAEGIRALNQGLPKIVANPHSIEGRDEALYGAYLAAVSFASAGSGLHHKICHTLGGTFNLPHAQTHATVLPYVLAFNAGDAPEAERRAAAAFGTDTALEGLQRLRLSVNAPKRLSDYGFEASGIAEAVDVTLEKVPANNPRPVTRENLSRLLEAALNGEDPAVLSAVLSN	soluble
MAHHHHHHMADTQPVPATVTSAHGAHAEAFGESFIVTLSSENLRVQLLSHGAALNSVQVRKPHPAASATASASATAEQDDEWLEVCLGYTNPEEALSADAVIGHTIGRYAGRIANGEFEIANTTYTLAKNFGPHNLHGGPVGFQHQEWKYLLSDGRDETGVAFHLVSPHMDQGFPGELFVTATYSIIKSAPVPTLKYVLQASLSDNTPVDMTVINLTNHAYWNLNGVPRPAAADAVAPLPRSIANHYLQLQSKYFAVTDELSIPNGDMRPVEGTPHDYSALRCVAEGMEATKEEGRDGGGYDDPVALETWDSTLREAALVYSPATKLRMQVCTTNPAIVVYTANHLPADASGSKGQRFQQHSAICLECQYFPNSPNVRAFPSTVLKKGEAYNETTIHAFQFMNADITPEEKLLRRQ	soluble
